# Source: the supplement of paper PMC11246515
# ± gives the standard deviation of the averaged measurements.
# Experiment: total protein half-life in vivo (active degradation + dilution); higher = more stable protein
# [1] = E. coli NCM3722 delta-clpP delta-lon delta-hslV, growth: N-lim chemostat, doubling time 6 h
# [2] = E. coli NCM3722 delta-clpP, growth: N-lim chemostat, doubling time 6 h
# [3] = E. coli NCM3722 delta-lon, growth: N-lim chemostat, doubling time 6 h
# [4] = E. coli NCM3722 delta-smpB, growth: N-lim chemostat, doubling time 6 h
# [5] = wild type E. coli NCM3722, growth: C-lim chemostat, doubling time 3 h
# [6] = wild type E. coli NCM3722, growth: C-lim chemostat, doubling time 6 h
# [7] = wild type E. coli NCM3722, growth: C-lim chemostat, doubling time 12 h
# [8] = wild type E. coli NCM3722, growth: N-lim chemostat, doubling time 6 h
# [9] = wild type E. coli NCM3722, growth: N-lim chemostat, doubling time 12 h
# [10] = wild type E. coli NCM3722, growth: P-lim chemostat, doubling time 6 h
# [11] = wild type E. coli NCM3722, growth: P-lim chemostat, doubling time 12 h
# [12] = E. coli NCM3722 delta-hslV, growth: N-lim chemostat, doubling time 6 h
Sequence,total protein half-life in vivo [1] [h],total protein half-life in vivo [2] [h],total protein half-life in vivo [3] [h],total protein half-life in vivo [4] [h],total protein half-life in vivo [5] [h],total protein half-life in vivo [6] [h],total protein half-life in vivo [7] [h],total protein half-life in vivo [8] [h],total protein half-life in vivo [9] [h],total protein half-life in vivo [10] [h],total protein half-life in vivo [11] [h],total protein half-life in vivo [12] [h]
MTQGAVKTTGKRSRAVSAKKKAILSAALDTFSQFGFHGTRLEQIAELAGVSKTNLLYYFPSKEALYIAVLRQILDIWLAPLKAFREDFAPLAAIKEYIRLKLEVSRDYPQASRLFCMEMLAGAPLLMDELTGDLKALIDEKSALIAGWVKSGKLAPIDPQHLIFMIWASTQHYADFAPQVEAVTGATLRDEVFFNQTVENVQRIIIEGIRPR [P0ACU2],6.17 ± 0.95,5.74 ± 0.36,5.5 ± 0.84,4.92 ± 0.71,2.31 ± 0.54,5.35,12.1 ± 1.9,5.39 ± 0.83,10.8 ± 1.4,4.61 ± 0.38,9.98 ± 0.25,
MTQKIEQSQRQERVAAWNRRAECDLAAFQNSPKQTYQAEKARDRKLCANLEEAIRRSGLQDGMTVSFHHAFRGGDLTVNMVMDVIAKMGFKNLTLASSSLSDCHAPLVEHIRQGVVTRIYTSGLRGPLAEEISRGLLAEPVQIHSHGGRVHLVQSGELNIDVAFLGVPSCDEFGNANGYTGKACCGSLGYAIVDADNAKQVVMLTEELLPYPHNPASIEQDQVDLIVKVDRVGDAAKIGAGATRMTTNPRELLIARSAADVIVNSGYFKEGFSMQTGTGGASLAVTRFLEDKMRSRDIRADFALGGITATMVDLHEKGLIRKLLDVQSFDSHAAQSLARNPNHIEISANQYANWGSKGASVDRLDVVVLSALEIDTQFNVNVLTGSDGVLRGASGGHCDTAIASALSIIVAPLVRGRIPTLVDNVLTCITPGSSVDILVTDHGIAVNPARPELAERLQEAGIKVVSIEWLRERARLLTGEPQPIEFTDRVVAVVRYRDGSVIDVVHQVKE,,,,,,,> 16,,,,,
MTQPMPGKPAEDAENELDIRGLFRTLWAGKLWIIGMGLAFALIALAYTFFARQEWSSTAITDRPTVNMLGGYYSQQQFLRNLDVRSNMASADQPSVMDEAYKEFVMQLASWDTRREFWLQTDYYKQRMVGNSKADAALLDEMINNIQFIPGDFTRAVNDSVKLIAETAPDANNLLRQYVAFASQRAASHLNDELKGAWAARTIQMKAQVKRQEEVAKAIYDRRMNSIEQALKIAEQHNISRSATDVPAEELPDSEMFLLGRPMLQARLENLQAVGPAFDLDYDQNRAMLNTLNVGPTLDPRFQTYRYLRTPEEPVKRDSPRRAFLMIMWGIVGGLIGAGVALTRRCSK [P0AG00],6.85 ± 0.38,6.17 ± 0.56,6.55 ± 0.092,6.22 ± 0.16,3.48 ± 0.46,6.38 ± 0.37,,6.6 ± 1.2,12.9 ± 1.9,6.31 ± 0.24,13.3 ± 0.56,6.71 ± 1.2
MTQPVLDIQQLHLSFPGFNGDVHALNNVSLQINRGEIVGLVGESGSGKSVTAMLIMRLLPTGSYCVHRGQISLLGEDVLNAREKQLRQWRGARVAMIFQEPMTALNPTRRIGLQMMDVIRHHQPISRREARAKAIDLLEEMQIPDAVEVMSRYPFELSGGMRQRVMIALAFSCEPQLIIADEPTTALDVTVQLQVLRLLKHKARASGTAVLFISHDMAVVSQLCDSVYVMYAGSVIESGVTADVIHHPRHPYTIGLLQCAPEHGVPRQLLPAIPGTVPNLTHLPDGCAFRDRCYAAGAQCENVPALTACGDNNQRCACWYPQQEVISV,6.47 ± 1.1,3.49 ± 0.17,2.24,4.53 ± 0.11,2.28 ± 0.3,3.41 ± 0.54,,4.02 ± 0.26,7.62 ± 0.58,,,4.03 ± 0.098
MTQQITLIKDKILSDNYFTLHNITYDLTRKDGEVIRHKREVYDRGNGATILLYNTKKKTVVLIRQFRVATWVNGNESGQLIESCAGLLDNDEPEVCIRKEAIEETGYEVGEVRKLFELYMSPGGVTELIHFFIAEYSDNQRANAGGGVEDEDIEVLELPFSQALEMIKTGEIRDGKTVLLLNYLQTSHLMD,4.25,3.023 ± 0.017,4.03 ± 0.41,3.07 ± 1,2.824 ± 0.026,4.44,6.27 ± 2.4,3.15 ± 0.25,4.71,2.31,4.47 ± 0.2,2.96 ± 0.066
MTQYSSLLRGLAAGSAFLFLFAPTAFAAEQTVEAPSVDARAWILMDYASGKVLAEGNADEKLDPASLTKIMTSYVVGQALKADKIKLTDMVTVGKDAWATGNPALRGSSVMFLKPGDQVSVADLNKGVIIQSGNDACIALADYVAGSQESFIGLMNGYAKKLGLTNTTFQTVHGLDAPGQFSTARDMALLGKALIHDVPEEYAIHKEKEFTFNKIRQPNRNRLLWSSNLNVDGMKTGTTAGAGYNLVASATQGDMRLISVVLGAKTDRIRFNESEKLLTWGFRFFETVTPIKPDATFVTQRVWFGDKSEVNLGAGEAGSVTIPRGQLKNLKASYTLTEPQLTAPLKKGQVVGTIDFQLNGKSIEQRPLIVMENVEEGGFFGRVWDFVMMKFHQWFGSWFS,6.35 ± 0.48,6.56 ± 0.37,6.18 ± 0.099,6.46 ± 0.26,3.19 ± 0.077,6.19 ± 1.3,12.4 ± 0.45,5.989 ± 0.057,14.9 ± 1.2,5.962 ± 0.051,13.2 ± 0.29,6.22 ± 0.69
MTRPIQASLDLQALKQNLSIVRQAATHARVWSVVKANAYGHGIERIWSAIGATDGFALLNLEEAITLRERGWKGPILMLEGFFHAQDLEIYDQHRLTTCVHSNWQLKALQNARLKAPLDIYLKVNSGMNRLGFQPDRVLTVWQQLRAMANVGEMTLMSHFAEAEHPDGISGAMARIEQAAEGLECRRSLSNSAATLWHPEAHFDWVRPGIILYGASPSGQWRDIANTGLRPVMTLSSEIIGVQTLKAGERVGYGGRYTARDEQRIGIVAAGYADGYPRHAPTGTPVLVDGVRTMTVGTVSMDMLAVDLTPCPQAGIGTPVELWGKEIKIDDVAAAAGTVGYELMCALALRVPVVTV,4.49 ± 0.56,3.6 ± 0.35,3.89 ± 0.29,3.37 ± 0.47,3.16 ± 0.19,6.2 ± 0.25,9.9 ± 0.72,3.6 ± 0.21,5.1 ± 0.33,6.81 ± 1.4,11.9 ± 1.2,3.14 ± 0.1
